Reference: patent publication US7390836B2, “Small molecules used to increase cell death” (priority 1999, dated 2008)

What was measured:
[1] = biological target: T1, Bcl-xL (Homo sapiens, UniProt Q07817, DEL45-84); experiment: Bcl-xL pore formation, carboxyfluorescein release from liposomes; type: biochemical; settings: 5 μM Bcl-xL-His6, pH 4.0
T1 construct: His6 (C); made in house
Experimental: Bcl-xL forms membrane pores, and the formation of these pores may play a role in Bcl-xL's ability to regulate apoptosis. Thus, the effects of the BH3Is on pore formation by Bcl-xL were tested (Minn, et al., Nature 385:353-7, 1997; Schendel et al., Proc. Natl. Acad. Sci. USA 94:5113-8, 1997; Minn et al., EMBO J. 18:632-43,1999; and Matsuyama et al., J. Biol. Chem. 273:30995-1001, 1998). Liposomes containing 20 mM of 5,6-carboxyfluorescein were prepared as previously described (Antonsson, et al., Science 277:370-2,1997). For Bcl-xL pore formation 5 μM Bcl-xL-His6 was preincubated with BH3I-2 or Bak BH3 peptide in 50 μl of 5 mM sodium citrate, 150 mM NaCl, pH 4.0 buffer for 10 min at 25° C., followed by addition of 5 μl of undiluted liposomes. Prior to determination of the fluorescence pH was adjusted by adding 10 μl of 1.5 M Tris-HCl, pH 7.5.

[2] = test system: BH3/Bcl-xL binding; experiment: SELDI binding assay, unlabeled Bak BH3 peptide on immobilized Bcl-xL-His6
Excerpt: To test the possibility that BH3Is target the OREGON GREEN moiety of the fluorescently labeled BH3 peptide, a novel BH3/Bcl-xL binding assay using unlabeled BH3 peptide was designed. In this assay Bcl-xL was covalently attached to a surface-enhanced laser desorption/ionization (SELDI) chip, and binding of the unlabelled BH3 peptide to the immobilized protein was monitored by mass spectrometry. Specifically, purified recombinant GST-Bcl-2 and BCL-xL-His6 were coupled through their primary amines to SELDI chip surfaces derivatized with carbonyldiimidazole (Ciphergen). Bak BH3 peptide was then added (in a total volume of 1 μl) for 12 hours at 4° C. in a humidified chamber, to allow binding to each spot of the SELDI chip. The chip was then washed with alternating high and low pH-0.1M sodium acetate with 0.5M NaCl, followed by 0.01M HEPES; pH 7.3. The samples were embedded in α-cyanno-4-hydroxycinnamaic acid matrix and analyzed for mass by MALDI TOF. An average of 100 laser shots at a constant setting were collected over 20 spots in each sample.

T1 sequence (Q07817 with tags, fused parts or gaps DEL45-84 limits assumed): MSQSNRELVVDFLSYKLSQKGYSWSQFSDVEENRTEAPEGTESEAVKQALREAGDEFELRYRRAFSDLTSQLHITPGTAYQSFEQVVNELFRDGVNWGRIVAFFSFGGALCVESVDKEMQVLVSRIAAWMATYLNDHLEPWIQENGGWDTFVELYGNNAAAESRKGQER

For “KGGGQVGRQLAIIGDDINR (SEQ ID NO: 2) (BAK) [BH3 peptide, nineteen amino acid Bak peptide corresponding to the BH3 domain of Bak, reference compound]”, the “Bcl-xL-mediated release of carboxyfluorescein from liposomes” value [1] was “Neither BH3Is nor BH3 peptide affected” and the “binding of BH3 peptide to Bcl-xL-modified surface” value [2] was “bound to the Bcl-xL-modified surface in a dose-dependent fashion”.
